B1: SOSS complex subunit B1 (Homo sapiens), Q9BQ15 (parent)
chain: MTTETFVKDIKPGLKNLNLIFIVLETGRVTKTKDGHEVRTCKVADKTGSINISVWDDVGNLIQPGDIIRLTKGYASVFKGCLTLYTGRGGDLQKIGEFCMVYSEVPNFSEPNPEYSTQQAPNKAVQNDSNPSASQPTTGPSAASPASENQNGNGLSAPPGPGGGPHPPHTPSHPPSTRITRSQPNHTPAGPPGPSSNPVSNGKETRRSSKR

Variants of: B1
Conditions: with int3_human INTS3, Q68E01
Sequence of int3_human INTS3, Q68E01 (Q68E01 whole entry): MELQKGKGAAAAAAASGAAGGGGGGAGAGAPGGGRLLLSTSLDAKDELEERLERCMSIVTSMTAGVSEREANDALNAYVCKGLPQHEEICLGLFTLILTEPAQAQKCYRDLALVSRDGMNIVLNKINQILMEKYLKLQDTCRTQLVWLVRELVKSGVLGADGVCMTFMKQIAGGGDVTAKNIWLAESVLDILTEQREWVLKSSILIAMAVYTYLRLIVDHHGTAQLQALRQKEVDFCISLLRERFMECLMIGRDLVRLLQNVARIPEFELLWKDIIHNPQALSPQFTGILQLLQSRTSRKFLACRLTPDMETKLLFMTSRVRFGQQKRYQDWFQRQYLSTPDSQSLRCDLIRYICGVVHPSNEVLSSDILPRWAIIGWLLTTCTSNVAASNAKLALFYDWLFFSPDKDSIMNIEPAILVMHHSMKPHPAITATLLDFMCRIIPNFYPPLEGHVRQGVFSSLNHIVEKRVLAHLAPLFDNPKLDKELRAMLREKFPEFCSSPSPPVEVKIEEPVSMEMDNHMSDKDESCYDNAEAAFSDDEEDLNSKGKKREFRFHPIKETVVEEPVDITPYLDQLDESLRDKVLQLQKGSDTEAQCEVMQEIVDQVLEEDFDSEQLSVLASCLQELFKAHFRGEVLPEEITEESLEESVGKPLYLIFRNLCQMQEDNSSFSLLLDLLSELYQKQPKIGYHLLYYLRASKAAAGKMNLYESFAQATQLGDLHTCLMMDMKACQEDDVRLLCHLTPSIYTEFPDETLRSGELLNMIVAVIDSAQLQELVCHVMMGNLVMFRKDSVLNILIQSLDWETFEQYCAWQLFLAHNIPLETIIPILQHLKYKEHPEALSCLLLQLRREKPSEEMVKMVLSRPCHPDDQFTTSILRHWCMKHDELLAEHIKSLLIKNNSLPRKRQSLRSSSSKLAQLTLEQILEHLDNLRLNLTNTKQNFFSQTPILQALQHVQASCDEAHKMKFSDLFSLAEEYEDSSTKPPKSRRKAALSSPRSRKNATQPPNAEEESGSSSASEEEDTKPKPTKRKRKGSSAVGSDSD

| effect of a mutation on the interaction | Variant |
| --- | --- |
| disrupting interaction strength | F98A |

Reference: IntAct's records for PubMed 28506294
